Assay results taken from the nanobody polyreactivity screen of Harvey et al. (2022).

Assay: yeast display, Sf9 membrane polyspecificity reagent, FACS + sequencing; frameworks hold sequencing errors
How it was run: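 Galactose-induced (36–48 hours) yeast carrying a synthetic nanobody display library were exposed to 10% biotinylated, detergent-solubilized Sf9 membrane reagent at 4 °C for 1 hour. FACS followed streptavidin microbead enrichment, using low and high (top ~1%) gates for expression (anti-HA) and reagent binding (streptavidin). Colony PCR, MiSeq 2 × 250 sequencing and CDR-length filtering followed. Labels for polyreactivity reflect the gate of origin.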

Sequence | polyreactivity (PSR sort gate)
QVQLVESGGGIDQAGGSLRLSCAASAFTLINYAMAWYRQAPGKERELVAAISQSGGSTYYADSVKGRFTISSDNAKNTVYLQMNSLKPEDTAVYYCNARRRGWGWTIGYVWRDDYWGQGTQVTVSS | high polyreactivity
QVQLVESGGGLVQAGGSLRLSCAASGRTFVPYAMGWYRQAPWKERELVASISSSGGSTYYADSVKGRFTISRDNAKNTVYLQMNSLKPEDTAVYYCATADRWSSSYYRSVRWYHYDYWGQGTQVTVSS | low polyreactivity
QVQLQESGGGLMQAGGSQRLSCAASGSISYYSDMAWYRQAPGKEREFVAGIGYGTSTNYADSVKGRFTTSRDNAKNTVYLQMISMKPEDTAVYYCAAYQGNGYEFYYWGQGTQVTVRS | low polyreactivity
QVQLVESGGGLVQAGGSLRLSCAASGRTLYQYAMGWYRQAPGKERELVAAITWNGGSTYYADSVKGRFTISRDNAKNTVYLQMNSLKPEDTAVYYCAADTVRPWYAYKAHDYWGQGTQVTVSS | low polyreactivity
QVQLVESGGGLVQAGGSLRLSCAASGRIFRIYAMGWYRQAPGKERELVARITYSGGSTYYADSVKGRFTISRDNAKNTVYLQMNSLKPEDTAVYYCNAYFIYEGGWYYKAQYDYWGQGTQVTVSS | low polyreactivity
QVQLVESGGGLVQAGGRLRLSSAASGRIFASNAMGWYRQAPGKERELVARIDSGGITNYADSVKGRFTISRDNAKNTVYFQMNSLKPEDTGVYYCAKSVGWWSPPLGVYWVQGTQVTVSS | low polyreactivity
QVQLVESGGGLVQAGGSLRLSCAASGRIFSYNAMGWYRQAPGKERELVAPINTSGGSTYYADSVKGRFTISRDNAKNTVYLHMNSLKPEDTAVYYCNATLPVYWPYYYYQGGDDDWGQGTQVTVSS | low polyreactivity
QVQLVESGAGLVQAGGSLRLSCAASGRIVYYVMGWYRQAPAKEMELVAAISTRGGSTYYADSVKGRFTISRDNAKNTVYLQINSLKPEDTAVYYCAASSLLTRFNSWGQGTQVTVSS | high polyreactivity
QVQLVESGGGLVQAGGSLRLICAASGNTFVRYYMGWYRQAPGKEREFVAAITASGGSTFADSVKGRFTISRDNAKNTVYLQMNSLKPEDTAVYYCNAGNSSTGVDRYDYWGQGTQVSVSS | low polyreactivity
QVQLQESGGGLVQAGGSLRLSCAASGYISSWYPMGWYRQAPGKEREFVATIAPGATPYYADSVKGRFTISRDYAKNTVYLQMNSLKPEDTAVYYCAAGPENNDFYSYWGQGTQVTVSS | low polyreactivity
QVQLVESGGCLVQAGGSLRLSCAASGSIFRRNAMGWSRQAPGKERELVAAISRTGGSTYYADSVKGRFTISRDNAKNTVYLQLNSLKPEDTAVYYCNTYSDYADDDYWGQGTQVTVSS | high polyreactivity
QVQLLESRGGLVQAGGSLRLSCAASGSNFDVYDMGWYRQAPGKERELVACISWDGDRTYYADSVKGRFTISRDNAKNTVYLQMKSLKPEDTAVYYCAVDSASDTIYDYWGQGTQVTVSS | low polyreactivity
QVQLVESGGGLVQAGGSLRLSCAASGSIFDAYAMGWYRQAPGKERELVAAITTGGGSTYYADSVKGRFTISRDTAKNTVYLQMNSLKPEDTAVYYCARDYGKYKGYYWGQGTQVTVSS | low polyreactivity
QVQLVESGGGLVQAGGSLRLTCAASGSTFWDNAMGWYRQAPGKERELVAAITAIGGTTYYADSVKGRFTISRDNAKNTVYLQMKSLKPEDTAVYYCAAVWSRFLISYSTGWWFEYWGQGTQVTVSS | low polyreactivity
QDQLVESGGGLVQAGGSLRLSCAASGSTFQTYAMGWYRQAPGKEREVVAAISFNGGSTYYADSVKGRFTISRDNAKNTVYLQMNSLKPEDTAVYSCAVEYTWASALYDGRHDYWGQGTQVTVSS | high polyreactivity
QVQLVESGGGLVQAGGSLRLSCAASGRTFSQNAMGWYRQAPGKERELVAAIRRGGSTNYADSVKGRFTISRDNEKNTVYLQMHSLKPEDTAVYYCAADLRRNGWGFDYWGQGTQVTVSS | high polyreactivity
QVQLVESGGGLVQAGGSLRLSCAASGFTFLQYAMGWYRQAPGKERELVATISSGGSTYYADSVKGRFTISRDNAKNTVYLQMNSLTPEDTAVYYCNAEEHFHTYVLHFRPYYVRHDYWGKGTQVTVSS | low polyreactivity
QVQLVESGGGLVQAGGSLRLSCAASGSTFAAYVMGWYRQAPGKERELVAAITKSGSSTYYADSVKGRFTISRDNAKNTVYLQMNSLKPEDTAVEYCAAYPVRVLYDYWGQGTQVTVSS | high polyreactivity
QVQLVESGGGLVQAGGSLRLSCAASGSIFLWNAKGWYRQAPGKERELVAAISSGTSTNYADSVKGRFTISRDNAKNTVYLQMNSLKPEDTAVYYCAARGRKNQRRYGYWGQGTQVTVSS | low polyreactivity
QVQLVESGGGLVQAGGSLRLSCAASGSTFGYYAMGWYRQAPGKERELVAAITGSGGCTYYADSVKGRFTISRDNAKNTVYLQMNSLKPEDTAVYYCATPTKFVRDDYWGQGTQVTVSS | low polyreactivity
QVQLVESGGGLVQAGGSLRLSCAASGLNFWLNAMGWYRQAPGKERELVAAISRGGSTNYADSVKGRFTNSRDNAKNTVYLQMNSLKPEDTAVYYCAAGSRRAACYDYSYPYGYWGQGSQVTVSS | high polyreactivity

Sequence | polyreactivity (PSR sort gate)
QVQLVESGGGLVQAGGSLRLSCAASGRTFQFYAMGWYRQAPGKERELVAAIDLRGGSTYYADSVKGRFTISRDNAKNTVYLQMNSLKPEDTAVYYCNATRSKFGYFYRYDYWGQGTQVTVSS | low polyreactivity
QVQLVESGGGLVQAGGSLRLSCAASGIILSPYAMGWYRQAPGKERELVAAISRSGGSTYYADSVKGRFTISRDNAKNTVYLQMNSLKPEDTAVYYCAAEYYGYWEYDYWGQGTQVTVSS | high polyreactivity
QVQQQESGGGLVQAGGSLRLSCAASGTIFQLTVMGRYRQAPGKERELVASIDYGGNTNYADSVKGRFTISRDNAKNTVYLQMHSLKPEDTAVYYCAASSDSWTTHPYWGQGTQVTVSS | low polyreactivity
QVQLVESGGGLVQAGGSLRLSCAASGSTLVYNDMGWYRQAPGKERELGATITGTDSTYYADSVKGRFTISRDNAKNTVYLQMNSLKPEDTADCAADRAASRPDYDYWGQGTQVTVSS | low polyreactivity
QVQLVESGGGLVQAGGSLRLSCAASGLIFKVYAMGWYRQAPWKERELVAAITYSGGSTDYADSVKGRFTISRDNAKNTVYLQMNSLTPEDTAVYYCNVEKVGHVNSYGYDYWGQGTQVNVSS | low polyreactivity
QVQLVESGGGLVQAGGSLRLSSAASTYLRLLMLWDGIDRRLGQIGSWLPLLTLVVNSTYYADSVKGRFTISRDNAKNTVYFQMNSLKPEDTAVYYCNVDPYGTYARTHLEYWGQGTQVTVSS | low polyreactivity
QVQLVESGGGLVQSGGSLRLSCAASGIIFSDYAMGWYRQAPGKERELVATITRSVRTSYADSVKGRFTISRDNAKNTVYLQMNSLKPEDTAVYYCNADVVGAVIAYDYWGQGTQVTVSS | low polyreactivity
QVQLVESGGGLVQAGGSLRLSCAASGRTLKINAMGWYRQAPGKERELVARISAGRTYYADSVKGRFTISRDNAKNTVYLQMNSLKPEDTAVYYCARRTNRPPWGFEYWGQGTQVTVSS | high polyreactivity
QVQLVESGGGLVQAGGILRLSCAASGNILRFNARGWYRPAPGKEMELVAAISRSGGTTYYADSEKGRFTISRDYAKNTVYLQMNSLKPEDTAVYYCADRYRYGESPGYYWGHGTQVTVSS | high polyreactivity
QVQLVESGGGLVQAGGSLRLSCAASGSTFGYAMGWYRQAPGKERELVAAITSTGGSTYYADSVKGRFTISRDNAKNTVYLQKNSLKPEDTAVYDCAADAYWIRSRFLYRMRSNSWGQGTQVTVSS | high polyreactivity
QVQLVESGGGLVQAGGSLRLSCAASGRTIASYTMGWYRQAPGKERELVAAISKSGGSTYYADSVKGRFTISRDNAKNTVYLQMNSLKPEDTAVYYCAKRRSGNVRKYDYWGQGTQVTVSS | high polyreactivity
QLQLVESGGGLVQAGGSLRLSCAASGSTFHYYDMGWNRKATGKERELVAAISSGGDSTYYADSVKGRFTISRDNAKNTVYLQMNSLKPEDTAVYYCAAAVYYGQSVWYYYWGQGTQVTVSS | high polyreactivity
QEQLVESGAGLVQAGGSLRLSCAASGSIFTLYGMGRYRQAPGKERELVAAITWSGGRTYYADSVKGRFTISRDNAKNTVYLQMNSLKPEDTAVYYCAAYRYVSWYYPDDYWGQGTQVTVSS | high polyreactivity
QVQLVESGGGLVQAGGSLRLICAASGSIFAGNAMGWYRQAPGKERELVADITSGDSTYYADSVKGRFTISRDNAKNTVYLQMNSLKPEDTAVYYCAADSWDSQVVSYEYWGQGTQVTVSS | low polyreactivity
QVQLVESGGGLVQAGGSLRLSCAASGGIFEAYVMGWYRQAPGKERELVAAISFRGGSTYYADSVQGRFTISRVNAKNSVYLQMNSLKPEDTAVYYCAADYRHQGYDYWGQGTQVTVSS | low polyreactivity
QVQLVESGGGLVQAGGSLRLSCAASGSTFVANGMGWYRQAPGKERELVAVISRNGGTTYYADSVKGRFTISRDNAKNTVYLQMNSLKPEDTAVYYCNAKLPVFHYFWMDYWGQGTQVTVSS | high polyreactivity
LVLLVESGGGLVQAGGSLRLSCAASGFSFACYGMGWYRQAPGNDRELVAALSWSGGRTYYADSVTGRFTISRDNAKNTVYLQMNSLKPEDTAVDYCYAYWNPASKYDFWGQGTQVTVTS | high polyreactivity
QVQLVESGGGLVQAGGSLRLSCDASGRTFGHKAMAWYRQAPGKEREFVAAITYSCVRTFYADSVKGRFTISRDNAKNTVYLQMNSLKQEDTAVYYCATDWRRDYDFWGQGTQVTVSS | low polyreactivity
QVQLVDSGGGLVQAGGSLRLSCAASGSILLYYTMGWYRPAPGKERELVATMSSSGGSTYYADSVKGRFTISRDNAKNTVYLQMNSLKPEDTAVYYCNADYIYYGTTYEYWGQGTQVTVSS | low polyreactivity
QVQLVESGGGLVQAGGSLRLICAASGIILAYAMGWYRQAPGKERELVAAISGRAGSTYYADSVKGRFTISRDNAKNTVYLHMNSLTPEDTAVYYCAKRISYLPVEMDYWGQGTQVTVSS | low polyreactivity
